B1: TPR t1 (parent)
chain: GACCAAUCUGCCCUCAGAGCUCGAGAACAUCUUCGGAUGCAGAGGAGGCAGGCUUCGGUGGCGCGAUAGCGCCAACGUCCUCAACCUCCAAUGCAUCCCACCACAUGAUGAUGCCUGAAGAGCCUUGGUUUUUUG

Variants of: B1
Test: polymerase ribozyme fitness, log enrichment relative to wild type (log ratio); higher = more active; in vitro selection for triplet polymerase activity
Procedure, shortened: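 Input and output libraries were sequenced on Illumina after a single in vitro selection round, run in triplicate on PCR-built, transcribed mutant libraries of each subunit of a heterodimeric triplet polymerase ribozyme. Selection annealed libraries to a biotinylated primer, the partner subunit and triplets, incubated them frozen at −7 °C, then gel-excised extended constructs for streptavidin-bead capture and RT-PCR. Genotypes with ≥10 input reads and ≥1 read per output were kept. Fitness is the logarithm, taken in base 2, of genotype enrichment divided by wild-type enrichment, using inverse-variance-weighted replicate averages.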

Question: With C49U U132A as the variant, how does the “polymerase ribozyme fitness (log ratio)” value read?
Answer: The value was -0.342.

Question: Which “polymerase ribozyme fitness (log ratio)” value does the source give for C49U G51U C62U C80A G113A here?
Answer: Its value is -4.27.

Question: With C49G G107A as the variant, how does the “polymerase ribozyme fitness (log ratio)” value read?
Answer: Its value is -6.49.

Question: With C49G C82G as the variant, how does the “polymerase ribozyme fitness (log ratio)” value read?
Answer: Its value is -1.03.

Question: For A50C A121G, which “polymerase ribozyme fitness (log ratio)” value is on record?
Answer: Its value is 1.73.

Question: With C49G C53A U59G C72U C86U U132A as the variant, how does the “polymerase ribozyme fitness (log ratio)” value read?
Answer: Its value is -0.782.

Question: Which “polymerase ribozyme fitness (log ratio)” value does the source give for A50C G63A U81A here?
Answer: The value was -0.41.

Question: With C49U U96A as the variant, how does the “polymerase ribozyme fitness (log ratio)” value read?
Answer: The value was -3.17.

Question: For A50C C73A A74U, which “polymerase ribozyme fitness (log ratio)” value is on record?
Answer: The value was -1.27.

Question: For C49G G63U, which “polymerase ribozyme fitness (log ratio)” value is on record?
Answer: Its value is -2.09.

Question: Which “polymerase ribozyme fitness (log ratio)” value does the source give for C49A G113A here?
Answer: The value was -0.955.

Question: Which “polymerase ribozyme fitness (log ratio)” value does the source give for C49A C94U here?
Answer: Its value is 0.159.

Question: Which “polymerase ribozyme fitness (log ratio)” value does the source give for C49G U125A here?
Answer: Its value is -0.51.

Question: Which “polymerase ribozyme fitness (log ratio)” value does the source give for C49A G52U G71C here?
Answer: Its value is -1.75.

Question: With C49A A91C G127A as the variant, how does the “polymerase ribozyme fitness (log ratio)” value read?
Answer: Its value is -3.35.

Question: For C49U U112A, which “polymerase ribozyme fitness (log ratio)” value is on record?
Answer: Its value is 0.631.

Question: With C49A C72U U109C U112A A121C as the variant, how does the “polymerase ribozyme fitness (log ratio)” value read?
Answer: Its value is -6.03.

Question: With C49A G52C U96C as the variant, how does the “polymerase ribozyme fitness (log ratio)” value read?
Answer: The value was -0.622.

Question: For C49G U59G C62U G122A, which “polymerase ribozyme fitness (log ratio)” value is on record?
Answer: The value was -1.61.

Question: Which “polymerase ribozyme fitness (log ratio)” value does the source give for C49G C62G C114A G117C here?
Answer: Its value is -7.8.

Question: For C49G U81G, which “polymerase ribozyme fitness (log ratio)” value is on record?
Answer: The value was -3.01.

Question: Which “polymerase ribozyme fitness (log ratio)” value does the source give for C49U G107A G120C U130G here?
Answer: The value was -6.54.

Question: With C49G C88A G107U as the variant, how does the “polymerase ribozyme fitness (log ratio)” value read?
Answer: Its value is -6.08.

Question: Which “polymerase ribozyme fitness (log ratio)” value does the source give for C49G G135U here?
Answer: Its value is -1.27.

Question: With C49G U109C as the variant, how does the “polymerase ribozyme fitness (log ratio)” value read?
Answer: The value was -4.72.

Question: For C49A G61A G127C G135C, which “polymerase ribozyme fitness (log ratio)” value is on record?
Answer: Its value is -0.458.

Question: For C49A G63U G117A, which “polymerase ribozyme fitness (log ratio)” value is on record?
Answer: Its value is -3.12.

Question: For A50C C115A U132C, which “polymerase ribozyme fitness (log ratio)” value is on record?
Answer: The value was -0.367.

Question: For C49U C76G, which “polymerase ribozyme fitness (log ratio)” value is on record?
Answer: The value was -0.454.

Question: With A50C C56G A121U as the variant, how does the “polymerase ribozyme fitness (log ratio)” value read?
Answer: Its value is 1.61.

Question: Which “polymerase ribozyme fitness (log ratio)” value does the source give for C49U C64A U81A G93U C114G C123U here?
Answer: The value was -6.8.

Question: Which “polymerase ribozyme fitness (log ratio)” value does the source give for C49U C104U C124A here?
Answer: The value was 1.02.

Question: With C49U G117C as the variant, how does the “polymerase ribozyme fitness (log ratio)” value read?
Answer: The value was -3.03.

Question: With C49U G69A as the variant, how does the “polymerase ribozyme fitness (log ratio)” value read?
Answer: Its value is -3.63.

Question: For C49U C72A C79G C104A, which “polymerase ribozyme fitness (log ratio)” value is on record?
Answer: The value was -4.65.

Question: For C49G G60C C86U, which “polymerase ribozyme fitness (log ratio)” value is on record?
Answer: Its value is -0.802.

Question: Which “polymerase ribozyme fitness (log ratio)” value does the source give for A50C G71A U133C here?
Answer: Its value is -0.939.

Question: Which “polymerase ribozyme fitness (log ratio)” value does the source give for C49G G60U U78C C97A here?
Answer: Its value is -5.83.

Question: For C49G C94G, which “polymerase ribozyme fitness (log ratio)” value is on record?
Answer: Its value is -1.92.

Question: For C49A C53A U116C, which “polymerase ribozyme fitness (log ratio)” value is on record?
Answer: The value was -1.16.

Question: For C49A A50C, which “polymerase ribozyme fitness (log ratio)” value is on record?
Answer: Its value is -0.838.

Question: With A50C G63C C97U as the variant, how does the “polymerase ribozyme fitness (log ratio)” value read?
Answer: The value was -1.52.

Question: For C49A U54A C56U U112C, which “polymerase ribozyme fitness (log ratio)” value is on record?
Answer: Its value is 1.59.

Question: Which “polymerase ribozyme fitness (log ratio)” value does the source give for C49U C115A here?
Answer: Its value is -0.871.

Question: With C49G G128U as the variant, how does the “polymerase ribozyme fitness (log ratio)” value read?
Answer: The value was -2.74.

Question: With C49U G77A A90U A91G C102A as the variant, how does the “polymerase ribozyme fitness (log ratio)” value read?
Answer: The value was -6.02.

Question: Which “polymerase ribozyme fitness (log ratio)” value does the source give for C49A C64U C123U here?
Answer: Its value is 0.702.

Question: With C49G G69A A100C C101U as the variant, how does the “polymerase ribozyme fitness (log ratio)” value read?
Answer: Its value is -5.56.

Question: Which “polymerase ribozyme fitness (log ratio)” value does the source give for C49A G57A G110C here?
Answer: The value was -6.31.

Question: For A50C G63U G69U U81G G128C, which “polymerase ribozyme fitness (log ratio)” value is on record?
Answer: Its value is -3.4.

Question: With C49A A83C as the variant, how does the “polymerase ribozyme fitness (log ratio)” value read?
Answer: Its value is -1.24.

Question: Which “polymerase ribozyme fitness (log ratio)” value does the source give for C49G C70A G110A A121C here?
Answer: Its value is -4.74.

Question: Which “polymerase ribozyme fitness (log ratio)” value does the source give for C49U U106A U116C here?
Answer: Its value is -1.79.

Question: With C49U C101A as the variant, how does the “polymerase ribozyme fitness (log ratio)” value read?
Answer: The value was -1.69.

Question: With C49U G110U as the variant, how does the “polymerase ribozyme fitness (log ratio)” value read?
Answer: Its value is -2.6.

Question: With G48U U96C U116A A121U as the variant, how does the “polymerase ribozyme fitness (log ratio)” value read?
Answer: Its value is -1.06.

Question: For A50C C56A, which “polymerase ribozyme fitness (log ratio)” value is on record?
Answer: Its value is -0.326.

Question: With G48U U109C as the variant, how does the “polymerase ribozyme fitness (log ratio)” value read?
Answer: The value was -4.94.

Question: Which “polymerase ribozyme fitness (log ratio)” value does the source give for C49A U78A G117C G128A U131C U133G here?
Answer: Its value is -6.98.

Question: For C49A G93C U112A, which “polymerase ribozyme fitness (log ratio)” value is on record?
Answer: Its value is 0.173.

Question: With C49U G60C A103C U112A C123G as the variant, how does the “polymerase ribozyme fitness (log ratio)” value read?
Answer: The value was -4.76.

Question: For C49U G113A, which “polymerase ribozyme fitness (log ratio)” value is on record?
Answer: The value was -1.68.

Question: With A50C C73A U92G U112A G135A as the variant, how does the “polymerase ribozyme fitness (log ratio)” value read?
Answer: Its value is -3.24.

Question: Which “polymerase ribozyme fitness (log ratio)” value does the source give for C49A C73A C88U A91U C124U here?
Answer: Its value is -0.744.

Question: For C49A C82A, which “polymerase ribozyme fitness (log ratio)” value is on record?
Answer: Its value is -1.17.

Question: Which “polymerase ribozyme fitness (log ratio)” value does the source give for C49A G71U U78A G120C here?
Answer: The value was 0.393.

Question: With C49U A75U C79U U116A U130C as the variant, how does the “polymerase ribozyme fitness (log ratio)” value read?
Answer: Its value is -4.3.

Question: Which “polymerase ribozyme fitness (log ratio)” value does the source give for C49G A83G C124G here?
Answer: Its value is 1.03.

Question: With C49A A91C C97G C99U G113A as the variant, how does the “polymerase ribozyme fitness (log ratio)” value read?
Answer: Its value is -7.59.

Question: With C49U G52U C56U G77U C101A as the variant, how does the “polymerase ribozyme fitness (log ratio)” value read?
Answer: Its value is -2.69.

Question: With C49A A90C as the variant, how does the “polymerase ribozyme fitness (log ratio)” value read?
Answer: The value was -1.35.

Question: With C49A A90U as the variant, how does the “polymerase ribozyme fitness (log ratio)” value read?
Answer: The value was -0.956.

Question: For C49A C124U, which “polymerase ribozyme fitness (log ratio)” value is on record?
Answer: Its value is 0.812.

Question: With C49G C62A U78C as the variant, how does the “polymerase ribozyme fitness (log ratio)” value read?
Answer: Its value is -1.5.

Question: With C49U G58A U125A as the variant, how does the “polymerase ribozyme fitness (log ratio)” value read?
Answer: The value was -1.44.

Question: Which “polymerase ribozyme fitness (log ratio)” value does the source give for C49G U92C here?
Answer: The value was -1.53.

Question: Which “polymerase ribozyme fitness (log ratio)” value does the source give for C49G C85A G113U here?
Answer: The value was -4.81.

Question: Which “polymerase ribozyme fitness (log ratio)” value does the source give for C49U C56U C72G C101G here?
Answer: The value was -3.7.

Question: Which “polymerase ribozyme fitness (log ratio)” value does the source give for C49U A95U C102A here?
Answer: The value was -3.2.

Question: With C49G G51A U54G as the variant, how does the “polymerase ribozyme fitness (log ratio)” value read?
Answer: The value was -4.1.

Question: For C49G A119G C123G, which “polymerase ribozyme fitness (log ratio)” value is on record?
Answer: Its value is 1.72.

Question: For A50C, which “polymerase ribozyme fitness (log ratio)” value is on record?
Answer: Its value is -0.212.

Question: Which “polymerase ribozyme fitness (log ratio)” value does the source give for C49A C56A U130C here?
Answer: Its value is -0.746.

Question: With A50C G61U C114U A118G as the variant, how does the “polymerase ribozyme fitness (log ratio)” value read?
Answer: The value was -3.14.

From the RNAGym collection of RNA variant scans (doi:10.1073/pnas.2313332121)
